Results on two substances are retold here after patent US20090311282A1.

For assay [1], the target named is GDF8 protein (R&D Systems Inc., Minneapolis, Minn.) (UniProt O14793). The assay is described as follows: cell-based or functional assay.
Assay [2] addresses purified GDF8 prohormone with C-terminal FLAG epitope (GDF8 prohormone-FLAG fusion protein) (human) (UniProt O14793). The assay is described as follows: ELISA, purified GDF8 prohormone coated 250 ng/well; MAB 788 10 mg/ml diluted 1:80.
Assay [3] deals with DJ2 peptide (GDF8 residues 282-301) (human). The assay is described as follows: ELISA, peptide coated 500 ng/well; MAB 788 10 mg/ml diluted 1:80.
Assay [4] deals with DJ1 peptide (GDF8 residues 267-286) (human). Described as above.
Assay [5] deals with DJ6 peptide (GDF8 residues 342-361) (human). The assay is described as above.
Assay [6] deals with DJ7 peptide (GDF8 residues 357-375) (human). Described as above.
The target in assay [7] is DJ5 peptide (GDF8 residues 327-346) (human). The assay is described as above.
Assay [8] addresses DJ3 peptide (GDF8 residues 297-316) (human). The description is as above.
The target of assay [9] is DJ4 peptide (GDF8 residues 312-331) (human). Described as above.
Assay [10] concerns the target DJ2 peptide (GDF8 residues 282-301) (human). The assay is described as follows: ELISA, peptide coated 500 ng/well; MAB 788 10 mg/ml diluted 1:40. (In general: An ELISA detects its analyte on a solid surface through an enzyme-linked reagent.)
Assay [11] concerns the target DJ1 peptide (GDF8 residues 267-286) (human). The assay is described as above.
Assay [12] has as its target DJ6 peptide (GDF8 residues 342-361) (human). The assay is described as above.
Assay [13] deals with DJ7 peptide (GDF8 residues 357-375) (human). The description is as above.
Assay [14] addresses DJ5 peptide (GDF8 residues 327-346) (human). Described as above.
Assay [15] deals with DJ3 peptide (GDF8 residues 297-316) (human). The description is as above.
The target in assay [16] is DJ4 peptide (GDF8 residues 312-331) (human). Described as above.
Assay [17] has as its target purified GDF8 prohormone with C-terminal FLAG epitope (GDF8 prohormone-FLAG fusion protein) (human) (UniProt O14793). Kind of assay: ELISA, purified GDF8 prohormone coated 250 ng/well; MAB 788 10 mg/ml diluted 1:40.
Assay [18] has as its target DJ2 peptide (GDF8 residues 282-301) (human). Kind of assay: ELISA, peptide coated 500 ng/well; MAB 788 10 mg/ml diluted 1:20.
Assay [19] deals with DJ1 peptide (GDF8 residues 267-286) (human). The description is as above.
For assay [20], the target named is DJ6 peptide (GDF8 residues 342-361) (human). Described as above.
For assay [21], the target named is DJ7 peptide (GDF8 residues 357-375) (human). The description is as above.
Assay [22] has as its target DJ5 peptide (GDF8 residues 327-346) (human). Described as above.
In assay [23] the target is DJ3 peptide (GDF8 residues 297-316) (human). The assay is described as above.
Assay [24] has as its target DJ4 peptide (GDF8 residues 312-331) (human). The assay is described as above.
The target in assay [25] is purified GDF8 prohormone with C-terminal FLAG epitope (GDF8 prohormone-FLAG fusion protein) (human) (UniProt O14793). Kind of assay: ELISA, purified GDF8 prohormone coated 250 ng/well; MAB 788 10 mg/ml diluted 1:20.

Sequence of DJ1 peptide (GDF8 residues 267-286) (human) (peptide, as listed by the source): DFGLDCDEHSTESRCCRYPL
Sequence of DJ2 peptide (GDF8 residues 282-301) (human) (peptide, as listed by the source): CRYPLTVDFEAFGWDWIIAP
Sequence of DJ6 peptide (GDF8 residues 342-361) (human) (peptide, as listed by the source): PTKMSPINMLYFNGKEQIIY
Sequence of DJ3 peptide (GDF8 residues 297-316) (human) (peptide, as listed by the source): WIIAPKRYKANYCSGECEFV
Sequence of DJ7 peptide (GDF8 residues 357-375) (human) (peptide, as listed by the source): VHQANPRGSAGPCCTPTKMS
Sequence of DJ4 peptide (GDF8 residues 312-331) (human) (peptide, as listed by the source): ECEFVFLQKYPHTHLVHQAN

Take “normal goat IgG (negative control purified from non-immunized goat sera) (antibody)”: the % Inhibition of GDF8 Activity (250 µg IgG), A204 CAGA-luciferase transcriptional activation assay in assay [1] was 0%.

As for “Rat monoclonal antibody 788 (R&D Systems Inc., Cat. No. MAB788)”, the OD 405/minute × 1000 (OD 405/minute × 1000) stood at 132 in [2]; 0 in [3]; 0 in assay [4]; 0 in [5]; 0 in assay [6]; 102 in [7]. For the same substance, the OD 405/minute × 1000 (OD 405/minute × 1000) in assay [8], in [9], in [10], in assay [11], in assay [12] and in assay [13] was 0 in each case. Moreover, the OD 405/minute × 1000 (OD 405/minute × 1000) in [14] is 118; in assay [15] it was 0; in [16], 0; in assay [17], 127; in [18] it was 0; in [19], 4. The OD 405/minute × 1000 (OD 405/minute × 1000) in [20] came out at 0; in assay [21], 0; in [22], 133; in assay [23] it was 0; in assay [24], 0; in assay [25], 132. In assay [1], this substance yielded a % Inhibition of GDF8 Activity (0.1 µg IgG), A204 CAGA-luciferase transcriptional activation assay of 0%. The % Inhibition of GDF8 Activity (1.8 µg IgG), A204 CAGA-luciferase transcriptional activation assay in assay [1] came out at 0%. Moreover, in assay [1], the % Inhibition of GDF8 Activity (3.1 µg IgG), A204 CAGA-luciferase transcriptional activation assay was found to be 7%. In assay [1], the % Inhibition of GDF8 Activity (6.3 µg IgG), A204 CAGA-luciferase transcriptional activation assay came to 17%. This substance also showed a % Inhibition of GDF8 Activity (12.5 µg IgG), A204 CAGA-luciferase transcriptional activation assay in assay [1] of 47%.
